From paper PMC6954729, “Type I fatty acid synthase trapped in the octanoyl‐bound state” (Protein Science : A Publication of the Protein Society, 2020)

Biological target: the molecule itself
Assay: crystal structure; crystals grown in 0.2 M potassium-sodium tartrate, 25% (w/v) PEG 3350 at 20°C, soaked with octanoyl-CoA for up to 2 min; 2.7 Å; four chains (A-D) in the asymmetric unit

B1: murine KS-MAT didomain (condensing part of murine Type I fatty acid synthase), octanoyl-bound (domain or fragment)
chain: EEVVIAGMSGKLPESENLQEFWANLIGGVDMVTDDDRRWKAGLYGLPKRSGKLKDLSKFDASFFGVHPKQAHTMDPQLRLLLEVSYEAIVDGGINPASLRGTNTGVWVGVSGSEASEALSRDPETLLGYSMVGCQRAMMANRLSFFFDFKGPSIALDTACSSSLLALQNAYQAIRSGECPAALVGGINLLLKPNTSVQFMKLGMLSPDGTCRSFDDSGSGYCRSEAVVAVLLTKKSLARRVYATILNAGTNTDGSKEQGVTFPSGEVQEQLICSLYQPAGLAPESLEYIEAHGTGTKVGDPQELNGITRSLCAFRQAPLLIGSTKSNMGHPEPASGLAALTKVLLSLEHGVWAPNLHFHNPNPEIPALLDGRLQVVDRPLPVRGGNVGINSFGFGGSNVHVILQPNTRQAPAPTAHAALPHLLHASGRTLEAVQDLLEQGRQHSQDLAFVSMLNDIAATPTAAMPFRGYTVLGVEGRVQEVQQVSTNKRPLWFICSGMGTQWRGMGLSLMRLDSFRESILRSDEAVKPLGVKVSDLLLSTDERTFDDIVHAFVSLTAIQIALIDLLTSVGLKPDGIIGHSLGEVACGYADGCLSQREAVLAAYWRGQCIKDAHLPPGSMAAVGLSWEECKQRCPAGVVPACHNSEDTVTISGPQAAVNEFVEQLKQEGVFAKEVRTGGLAFHSYFMEGIAPTLLQALKKVIREPRPRSARWLSTSIPEAQWQSSLARTSSAEYNVNNLVSPVLFQEALWHIPEHAVVLEIAPHALLQAVLKRGVKSSCTIIPLMKRDHKDNLEFFLTNLGKVHLTGINVNPNALFPPVEFPAPRGTPLISPHIKWDHSQTWDVPVAEDFPN
modifications: octanoyl covalently bound to C161 (KS, all four chains of the asymmetric unit); octanoyl covalently bound to S581 (MAT, chain D only)
notes: Type I fatty acid synthase (FAS), murine; condensing part with KS, linker domain (LD) and MAT; residues 1-407 and 824-852 (KS) and 488-806 (MAT) are named in superpositions; Wild type; also called murine FAS KS-MAT didomain; Wildtype soaked with octanoyl-CoA; source: E. coli BL21 Gold (DE3), purified (Ni-NTA, Strep-Tactin, SEC)
binding result: binds
